Experimental data: the nanobody polyreactivity screen of Harvey et al. (2022)

Experiment: yeast display, Sf9 membrane polyspecificity reagent, FACS + sequencing; frameworks hold sequencing errors
Procedure, shortened: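 Galactose-induced (36–48 hours) yeast carrying a synthetic nanobody display library were exposed to 10% biotinylated, detergent-solubilized Sf9 membrane reagent at 4 °C for 1 hour. FACS followed streptavidin microbead enrichment, using low and high (top ~1%) gates for expression (anti-HA) and reagent binding (streptavidin). Colony PCR, MiSeq 2 × 250 sequencing and CDR-length filtering followed. Labels for polyreactivity reflect the gate of origin.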

| Sequence | polyreactivity (PSR sort gate) |
| --- | --- |
| QVQLVESGGGLVQAGGSLRLSCAASGIIFRRYAMGWYRPEPGLVRELVAAISASGVRTYYADSVKGRFTISRDNAKNTVYFQMNSLKPEDTAVYYCAAATKRVEYEYWGQGTQVTVSS | high polyreactivity |
| QVQLVESGGGLVQAGGSLRLSCAASGIIFRRYAMGWYRQAPGKEREFVAAIRYTGGGTYYADSVKGRFTISRDNAKNTVYLQMNSLKPEDTAVYYCAARDRDTRNYYWGQGTQVTVSS | high polyreactivity |
| QVQLVESGGGLVQAGGSLRLSCAASGIIFRSYAMGWYRQAPGKERELVAGITRVGSTYYADSVKGRFTISRDNAKNTVYLQMHSLKPEDTAVYYCNAYNYWSDDYWGQGTQVTVSS | high polyreactivity |
| QVQLVESGGGLVQAGGSLRLSCAASGIIFRSYTMGWYRQAPGKERELVASITRSGGITYYADSVKGRFTISRDNAKNTVYLQMNSLKPEDTAVYYCSARHRYYSYSGYDYWGQGTQVTVSS | high polyreactivity |
| QVQLVESGGGLVQAGGSLRLSCAASGIIFRTNAMGWYRKAPGKEREFVAAISAGGTRTYYADSVKGRFTISRDNAKNTVYLQMNSLKPEDTAVYYCAAASGYDYWGQGTQVTVSS | high polyreactivity |
| QVQLVESGGGLVQAGGSLRLSCAASGIIFRYNTMGWYRQAPGKERELVAAITRSGGSTYYADSVKGRFTISRDNAKNTVYLQMNSLKPEDTAVYYCAAQGYSYRHTAFEYWGQGTQVTVSS | high polyreactivity |
| QVQLVESGGGLVQAGGSLRLSCAASGIIFRYYAMGWYRQAPGKERELVARITSRAGRTYYADSVKGRFTISRDYAKYTVYLQMNSLKPEDTAVYYCAARLYGRYGYWGQGTQVTVSS | high polyreactivity |
| QVQLVESGGGLVQAGGSLRLSCAASGIIFRYYTMGWYRQAPGTERELVAAITSGGSTNYADSVKGRFTISRDNAKNTVYLQMNSLKPEDTAVYYCRQFSVWGYDYWGQGTQVTVSS | high polyreactivity |
| QVQLVESGGGLVQAGGSLRLSCAASGIIFSFYAMGWYRKAPGKERELVAAISQSGGSTYYADSVKGRFTISRDNAKNTVYLQMNSLKPEDTAVYYCAVAGWYGSEYWGQGTQVTVSS | high polyreactivity |
| QVQLVESGGGLVQAGGSLRLSCAASGIIFSFYAMGWYRQAPGKERELVAAISRSGGSTYYADSVKGRFTISRDNAKNTVYLQMNSLKPEDTAVYYCNADNGASYYYRRYDSWGQGTQVTVSS | high polyreactivity |
| QVQLVESGGGLVQAGGSLRLSCAASGIIFSGYARGWSRQAPGKERELVAVISSSGGGTYYADSVKGRFTISRDNAKNTVYLHMNSLKPEDTAVYYCAARGREAIHGYWGQGTQVTVSS | high polyreactivity |
| QVQLVESGGGLVQAGGSLRLSCAASGIIFSRYAMGWYRQAPGKERELVAAISSSGGTTYYADSVKGRFTISRDNAKNTVYLQMNSLKPEDTAVYYCYAPAFYKYKSFYAHSGYDYWGQGTQVTVSS | high polyreactivity |
| QVQLVESGGGLVQAGGSLRLSCAASGIIFSSNAMGWYRQAPGKERELVAAISRRGGSTSYADSVKGRFTISRDNAKNTVYLQINSLKPEDTAVYYCAARYVYPGEDYWGQGTQVTVSS | high polyreactivity |
| QVQLVESGGGLVQAGGSLRLSCAASGIIFSSNAMGWYRQAPGKERELVAAITRRGGSTRYADSVKGRFTISRDNAKNTVYLQMNSLKPEDTAVYYCNALTGYPYRWGISYPMDYWGQGTQVTVSS | high polyreactivity |
| QVQLVESGGGLVQAGGSLRLSCAASGIIFSSSAMGWYRQAPGKEREVVAAITSCGNTNYADSVKGRFTISRDNAKNTVYLQMNSLNPEDTAVYYCNAETSFVWLAWHPYGFGDWGQGTQVTVSS | low polyreactivity |
| QVQLVESGGGLVQAGGSLRLSCAASGIIFSTNAMGWYRQAPGKERELVAAISWDGSSTYYADSVKGRFTISRDNAKNTVYLQMNSLKPEDTAVYYCAADQSTVLDVGSWGQGTQVTVSS | low polyreactivity |
| QVQLVESGGGLVQAGGSLRLSCAASGIIFSWYAMGWYRQAPGKERELVASITASGGSTYYADSVKGRFTISRDTAKNTVSFQMHSLKPEDTAVYYCAVRYGHRSFASVYVEYDYWGQGTQVTVSS | low polyreactivity |
| QVQLVESGGGLVQAGGSLRLSCAASGIIFSYNVMGWYRQAPGKEREFVADITWNGGSTYYADSVKGRFTISRDNAKNTVYLQMNSLKPEDTAVYYCATGWPWYSNYASAYDYWGQGTQVTVSS | low polyreactivity |
| QVQLVESGGGLVQAGGSLRLSCAASGIIFSYYARGWYRQAPGKDRELVAAISSSGVSTNYADSVKGRFTISRDNAKNTVYLQMTSLKPEDTAVYYCAADYGSWSNWGYEYWGQGTQVTVSS | high polyreactivity |
| QVQLVESGGGLVQAGGSLRLSCAASGIIFTDNAMGWSRQAPGKERELVAAISCRGGSTYYADSVKGRFTISRDNAKNTVYLQMNSLKPEDTAVYYCARYGTDHRLGYGYWGQGTQVTVSS | low polyreactivity |
| QVQLVESGGGLVQAGGSLRLSCAASGIIFTDTAMGGYTQPPGKVRELVATISWSTDNTYYADSVKGRFTISRDNAKNTVYLQMNSLKPEDTAVYYCAAEEFYAYWYQSDYWGQGTQVTVSS | low polyreactivity |
| QVQLVESGGGLVQAGGSLRLSCAASGIIFTGNAMGWYIQAPGKERELVAAITSGDTTNYADSVKGRFTISRDNAKNTVYLQMNSLKPEDSAVYYCAKELQVRQAGDYWGQGTQVTVSS | low polyreactivity |

| Sequence | polyreactivity (PSR sort gate) |
| --- | --- |
| QVQLVESGGGLVQAGGSLRLSCAASGIIFTGYAMGWYRQAPGKERELVAAISGSGGRTYYSDSVKGRFTISRDNAKNTVYLQMNSLKPEDTAVYYCAAYRVSDYDYWGQGTQVTVSS | high polyreactivity |
| QVQLVESGGGLVQAGGSLRLSCAASGIIFTNYAMGWYRQAPGKERELVAAISSSSGTTYYADSVKGRFTISRDNAKNTDYLQMNSLKPEDTALYYCNAGRSWRRTHYDYWVQGTQVTVSS | high polyreactivity |
| QVQLVESGGGLVQAGGSLRLSCAASGIIFTNYGMGWYRQAPGKERELGAVISRRGGSTYYADSVKGRFTISRDNAKNTVYLQMNSLKPEDTAVYYCNTRTQGAKQYTGYDYWGQGTQVTVSS | high polyreactivity |
| QVQLVESGGGLVQAGGSLRLSCAASGIIFTNYSMGWYRQAPGKERELVAAISKGAGRTYYADSVKGRFTISRDNAKNTVYLQMNSLKPEDTAVYYCNKAKRSGGYPGVFSYDYWGQGTQVTVSS | high polyreactivity |
| QVQLVESGGGLVQAGGSLRLSCAASGIIFTSYAMGWYRQAPGKEREFVAGISVRGSSTYYADSVKGRFTISRDNAKNTVYLQMNSLKAEDTAVYYCAARTPSRYLYYEYDYWGQGTQVTVSS | low polyreactivity |
| QVQLVESGGGLVQAGGSLRLSCAASGIIFTTNAMGWYRQAPGKERELVATISTGGGTYYADSVKGRFTSSRDNAKNTVYLQMHSLKPEDTAVYYCAATPGWGPWIFDHSYVDFDYWGQGTQVTVSS | low polyreactivity |
| QVQLVESGGGLVQAGGSLRLSCAASGIIFVAYAMGWYRPAPGKERELVAAITKSGVRTYYADSVKGRFTISRGNAKNTVYLQMNSLKPEDTAVYYCAADRGVGVYYWGQGTQATVSS | high polyreactivity |
| QVQLVESGGGLVQAGGSLRLSCAASGIIFVEYAMGWYRQAPGKERELVARIRYSGGSTYYADSVKGRFTISRDNAKNTVYLQMNSLKPEDTAVYYCNALFPYIYDYWGQGTQVTVSS | low polyreactivity |
| QVQLVESGGGLVQAGGSLRLSCAASGIIFVLYDMGWYRPAPGKERELVAAIDKSGGSTYYADSVKGRFTISRDNAKNTVYLQMNSLKPEDTAVYYCNARVVWRNPSYLKSSYDYWGQGTQVTVSS | low polyreactivity |
| QVQLVESGGGLVQAGGSLRLSCAASGIIFVRNAMGWYRQAPGKERELVAAISRSGGSTYYADSVKGRFTISRDNAKNTVYLQMNSLKPEDTAVYYCAAVMRLSSGYDYWGQGTQVTVSS | high polyreactivity |
| QVQLVESGGGLVQAGGSLRLSCAASGIIFVRNVMGWYRQAPGKERELVAAITNGGSTYYADSVKGRFTISRDNAKNTVYLQMNSLQPEDTAVYYCAALTGVRRRYYYWGQGTQVTVSS | high polyreactivity |
| QVQLVESGGGLVQAGGSLRLSCAASGIIFVRYTMGWYRQAPGKERELVAAISSSGGSTYYADSVKGRFTISRDNAKNTVYLQMNSLKPEDTAVYYCNAEIRDNNVGYYTDYDYWGQGTQVTVSS | high polyreactivity |
| QVQLVESGGGLVQAGGSLRLSCAASGIIFVSYAMGWYRQAPGKERELVAAITRRGSRTYYADSVKGRFTISRDNAKNTVYLQMNSLKPEDTAVYYCAADSQAARYHAYDYWGQGTQVTVSS | high polyreactivity |
| QVQLVESGGGLVQAGGSLRLSCAASGIIFVSYAMGWYRQAPGKERELVADITSGGRTYYADSVKGRFTISRDNAKNTVYLQMNSLKPEDTAGYYCAATYSYKGRWVWVYYWGQGTQVTVSS | high polyreactivity |
| QVQLVESGGGLVQAGGSLRLSCAASGIIFVVNDMGWYRQAPGKERELVADISDSGGSTNYADSVKGRFTISRDNAKNTVYLQMNSLKPEDTAVYYCNADGITSLPVPALDYWGQGTQVTVSS | low polyreactivity |
| QVQLVESGGGLVQAGGSLRLSCAASGIIFVWNAMGWYRQAPGKERALVAAITNGGSTYYADSVKGRFTISRDNAKTTVYLQMTSLKPEETAVDYCHVRYFFRFRDDYWGQGTQVTVSS | low polyreactivity |
| QVQLVESGGGLVQAGGSLRLSCAASGIIFVYYVMGWYRQAPGKERELVASIDGSGGSTNYADSVKGRFTISRDNAKNTVYLQMNSLKPEDTAVYYCNADNILYWSTLDYLGQGTQVTVSS | low polyreactivity |
| QVQLVESGGGLVQAGGSLRLSCAASGIIFWDNAMGWYRQAPGKERELVASINYSGGSTYYADSVKGRFTISRDNAKNTVYLQMNSLKPEDTAVYYCAARTVTLDDWDYAYDYWGQGTQVTVSS | low polyreactivity |
| QVQLVESGGGLVQAGGSLRLSCAASGIIFWDYAMGWSRQAPGKEREIVAAINTSGGTTTYADSVKGRFTISRDNAKNTVYLKMNSLKPEDTAVYYCAADTWGYYSYAYYYWGQGTQVTVSS | low polyreactivity |
| QVQLVESGGGLVQAGGSLRLSCAASGIIFWFYAMGWYRQAPGKERELVAVISWNGDSTYYADSVKGRFTISRDNAKNTVYLQMNSLKPEDTEVYYCSAETYLGVYGSEYDYWGQGTQVTVSS | low polyreactivity |
| QVQLVESGGGLVQAGGSLRLSCAASGIIFWLYTMGWYRQAPGKERELVAAITSGGSTYYADSVKGRFTISRDNAKNTVYLQMNSLKPEDTAVYDCAAVPRYRRWKYDYWGQGTQVTVSS | high polyreactivity |
